# According to patent US20240092922A1:
# What was measured:
# [1] = target: chimeric (mouse and human) 4-1BB (c4-1BB) on transfected CHO cells (chimeric (mouse and human)); experiment: flow cytometry on CHO-c4-1BB cells, negative control panel, detection with anti-mouse-IgG-Fc-FITC (1:100)
# [2] = target: mouse 4-1BB (m4-1BB) on transfected CHO cells (mouse) (UniProt P20334); experiment: flow cytometry on CHO-m4-1BB cells, negative control panel, detection with anti-mouse-IgG-Fc-FITC (1:100)
# [3] = target: monkey (Rhesus macaque) 4-1BB (r4-1BB) on transfected CHO cells (monkey (Rhesus macaque)); experiment: flow cytometry on CHO-r4-1BB (T) cells, negative control panel, detection with anti-mouse-IgG-Fc-PE (1:500)
# [4] = target: human 4-1BB (h4-1BB) on transiently transfected CHO cells (human) (UniProt Q07011); experiment: flow cytometry on CHO cells transiently transfected with human 4-1BB, detection with anti-mouse-IgG-Fc-FITC (1:100), SSC-H against FITC; negative control panel
# [5] = target: Histidine-tagged human 4-1BB protein (h4-1BB-His) (human) (UniProt Q07011); experiment: SPR (Biacore T200), antibody on Protein A chip, h4-1BB-His injected
# Chain of urelumab (antibody) (VH): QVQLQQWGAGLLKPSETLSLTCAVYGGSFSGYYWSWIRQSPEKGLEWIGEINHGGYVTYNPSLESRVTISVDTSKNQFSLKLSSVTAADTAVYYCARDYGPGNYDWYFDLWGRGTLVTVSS
# Chain of urelumab (antibody) (VL): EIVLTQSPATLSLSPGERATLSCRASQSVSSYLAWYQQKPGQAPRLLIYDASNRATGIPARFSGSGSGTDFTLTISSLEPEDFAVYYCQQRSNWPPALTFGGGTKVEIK
percent of cells in the FITC-positive gate [1] [%],percent of cells in the FITC-positive gate [2] [%],percent of cells in the PE-positive gate [3] [%],percent of cells in the FITC-positive gate [4] [%],Kd [5] [nM],koff [5] [s⁻¹],kon [5] [M⁻¹ s⁻¹],Substance
1.07,0.983,0.429,0.598,,,,NC
,,,,44.3,0.00302,68100,urelumab (antibody)
